Columns and labels:
[1] = target: La Crosse virus (LACV) Gc head domain (aa 477–722), tryptic fragment of the variable region (aa 477–911) (La Crosse virus) (UniProt Q8JPR1); experiment: crystal structure
[2] = target: Bunyamwera virus (BUNV) Gc head domain (aa 478–721) (Bunyamwera virus) (UniProt P04505); experiment: crystal structure

Chain of La Crosse virus (LACV) Gc head domain (aa 477–722), tryptic fragment of the variable region (aa 477–911) (Q8JPR1 477-722): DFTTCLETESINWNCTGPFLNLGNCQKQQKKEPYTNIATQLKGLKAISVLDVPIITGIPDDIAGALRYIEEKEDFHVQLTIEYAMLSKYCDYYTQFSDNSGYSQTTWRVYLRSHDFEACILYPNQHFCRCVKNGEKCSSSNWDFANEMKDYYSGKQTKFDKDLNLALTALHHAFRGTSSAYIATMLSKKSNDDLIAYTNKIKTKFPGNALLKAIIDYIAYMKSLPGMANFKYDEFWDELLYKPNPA
Chain of Bunyamwera virus (BUNV) Gc head domain (aa 478–721) (P04505 478-721): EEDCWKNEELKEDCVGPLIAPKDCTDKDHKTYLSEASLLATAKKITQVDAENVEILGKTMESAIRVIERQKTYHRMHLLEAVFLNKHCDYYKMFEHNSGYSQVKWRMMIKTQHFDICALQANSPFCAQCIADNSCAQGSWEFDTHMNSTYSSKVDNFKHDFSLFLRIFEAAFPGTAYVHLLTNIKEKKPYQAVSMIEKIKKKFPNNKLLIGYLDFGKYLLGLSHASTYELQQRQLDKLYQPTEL

Substance	stoichiometry N [1]	stoichiometry N [2]
La Crosse virus (LACV) Gc head domain (aa 477–722), tryptic fragment of the variable region (aa 477–911) (from UniProt Q8JPR1 477-722) (domain or fragment)	3	
Bunyamwera virus (BUNV) Gc head domain (aa 478–721) (from UniProt P04505 478-721) (domain or fragment)		3
